Results reported in patent US20050129695A1 (published 2005).

Tests used:
Aβ38 peptide (1-38) = target: T1, Aβ38 peptide (1-38) (UniProt P05067 672-709); experiment: BIAcore 3000, antibody amine-coupled to CM5, peptide injected; qualitative
T1 construct: domain: Aβ38 (1-38 peptide); Injected over immobilized antibodies in BIAcore; also called 1-38 peptide
Procedure: (§1) BIAcore 3000, CM5 sensor surface, amine coupling kit, HEPES buffered saline (HBS, 10 mM HEPES 150 mM NaCl, pH7.4 with 3 mM EDTA and 0.005% Tween-20) and 10 mM sodium acetate pH 4.5 were purchased from Biacore, Inc. (Piscataway, N.J.). Anti-Aβmonoclonal antibodies (100 ug/mL) were dialyzed against HBS diluted 1:10 with water. Then, the dialyzed mAb solution was diluted 1:10 into 10 mM sodium acetate pH 4.5. The CM5 sensor surface was equilibrated in the BIAcore 3000 with HBS. Each antibody was immobilized onto a flow cell using the immobilization wizard provided in the operating software and the protocols supplied with the amine coupling kit. The wizard was set to immobilize 2500 RU of antibody. Typically 2000-3000 RU were actually immobilized.
(§2) For each mAb response, data as a function of time were collected (FIG. 46). From the sensorgram, report points are taken 10 seconds prior to the injection of the peptide, 10 seconds prior to the completion of the association phase, and 60 seconds into the dissociation phase. […] These calculations are made possible by assuming that 1 RU=1 pg of peptide (or protein)/mm².
(§3) Due to the potentially multiple aggregation states of the 1-38 and 1-42 peptides, a quantitative analysis of the binding constants is not possible. However, a qualitative analysis is possible. FIG. 47 ranks the mAbs as a function of binding ratio and fraction remaining on the surface after 60 seconds reflecting the stability of the complex. From this analysis C705 and C707 appear to be capable of binding to “monomeric” peptide, where as C701 and C706 requires the peptide to be aggregated to some extent before they can bind.

human Aβ1-42 = target: T2, human Aβ1-42 (human, UniProt P05067 672-713); experiment: as above
T2 construct: domain: Aβ1-42; same polypeptide, aggregation state differs; also called Aβ42; 1-42 peptide
T2 sequence (P05067 672-713 limits assumed): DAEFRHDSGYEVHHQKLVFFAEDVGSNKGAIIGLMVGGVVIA
Procedure: as §1, §2, §3

T1 sequence (P05067 672-709 limits assumed): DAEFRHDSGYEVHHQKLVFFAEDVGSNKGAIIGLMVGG

Row | Binder | binding result (Aβ38 peptide (1-38)) | binding result (human Aβ1-42)
1 | anti-Aβ monoclonal antibody C706 (antibody, V domains shown, Tested as protein G purified IgG, detected with goat anti-mouse IgG; also called C706 mAb) VH: QVQLQQSGPELMKPGASVKISCKATGYTFSTSWIEWIKQRPGHGLEWIGEVLPGSGKSNHNANFKGRATFTADTASNTAYMQLSSLTSEDSAVYYCAREGSNNNALAYWGQGTLVTVSA VL: QIVLTQSPAIMSASPGEKVTMTCSASSSVSYMHWYQQKSGTSPKRWIYDSSRLASGVPSRFSGGGSGTSYSPTISNMEAEDAATYFCQNWRSSPTFGAGTKLELKR | binds | binds
2 | anti-Aβ monoclonal antibody C701 (antibody, V domains shown, Tested as protein G purified IgG, detected with goat anti-mouse IgG; also called C701 mAb) VH: EGQLQQSGAELVRSGASLKLSCTASGFNIKDHYVHWVRQRPEQGLDWIGWIAPKNGYSESAPKFQGKASMTADTSSNTVYLQLSSLTSEDTAVYYCFAGFYDSSLYWGQGTTLTVSS VL: not shown | binds | binds
3 | anti-Aβ monoclonal antibody C707 (antibody, V domains shown, Tested as protein G purified IgG, detected with goat anti-mouse IgG; also called C707 mAb) VH: EVQLQQSGPDLVKPGASVKTSCKTSGYSFTEYIMSWVRQSHGKSLEWIGSINPNTGGSRYNQKFKGKATLTVDKSSSTAYMEFRSLTSEDSAVYYCARGDFDYWGQGTTLTVSS VL: DIVMTQAAFSNPVTLGTSASISCRSSKNLLHSNGITYLYWYLQRPGQSPQLLISRVSNLASGVPNRFSGSESGTDFTLRISRVEAEDVGVYYCAQLLELPFTFGSGTKLEIKR | binds | binds
4 | anti-Aβ monoclonal antibody C705 (antibody, V domains shown, Tested as protein G purified IgG, detected with goat anti-mouse IgG; also called C705 mAb) VH: not shown VL: DVMMTQTPLSLPVSLGDQASISCRSSQSLVHSNGNTYLEWYMQKPGQSPMLLIYKVSNRFSGVPDRFSGSGSGTDFTLKISSVEAEDLGVFYCFQGSRVPLTFGAGTKLELKR | binds | binds
